The subject of data set [1] is condensin pentamer;condensin pentamer (Schizosaccharomyces pombe;Schizosaccharomyces pombe). Briefly: second DNA capture by condensin preloaded on bead-bound DIG-5kb-DIG. Particulars: binding buffer, pH and temperature not given in material; Mg2+ and ATP; washes at 500 mM NaCl (topological loading) or 100 mM NaCl (gripping state).
Data set [2] concerns condensin pentamer (Schizosaccharomyces pombe). In words: condensin immunoprecipitation, 500 mM NaCl wash. Conditions: Mg2+, ATP, binding buffer, pH and temperature not given in material, washes at 500 mM NaCl (topological loading) or 100 mM NaCl (gripping state).
Data set [3] concerns the target T1, Cnd1^Ycs4 (fission yeast condensin HEAT-repeat subunit) (S. pombe, UniProt O94679 1-1158).
T1 construct: Cnd1 (Ycs4), S. pombe condensin HEAT-repeat subunit; cDNA cloned into an S. cerevisiae expression vector; source: S. cerevisiae (w303, pep4 deleted), co-overexpressed with the other four condensin subunits from GAL1-10 promoters; in cell extract, and purified as the complex (IgG-agarose, 3C protease elution, heparin, Superose 6)
T1 sequence (looked up): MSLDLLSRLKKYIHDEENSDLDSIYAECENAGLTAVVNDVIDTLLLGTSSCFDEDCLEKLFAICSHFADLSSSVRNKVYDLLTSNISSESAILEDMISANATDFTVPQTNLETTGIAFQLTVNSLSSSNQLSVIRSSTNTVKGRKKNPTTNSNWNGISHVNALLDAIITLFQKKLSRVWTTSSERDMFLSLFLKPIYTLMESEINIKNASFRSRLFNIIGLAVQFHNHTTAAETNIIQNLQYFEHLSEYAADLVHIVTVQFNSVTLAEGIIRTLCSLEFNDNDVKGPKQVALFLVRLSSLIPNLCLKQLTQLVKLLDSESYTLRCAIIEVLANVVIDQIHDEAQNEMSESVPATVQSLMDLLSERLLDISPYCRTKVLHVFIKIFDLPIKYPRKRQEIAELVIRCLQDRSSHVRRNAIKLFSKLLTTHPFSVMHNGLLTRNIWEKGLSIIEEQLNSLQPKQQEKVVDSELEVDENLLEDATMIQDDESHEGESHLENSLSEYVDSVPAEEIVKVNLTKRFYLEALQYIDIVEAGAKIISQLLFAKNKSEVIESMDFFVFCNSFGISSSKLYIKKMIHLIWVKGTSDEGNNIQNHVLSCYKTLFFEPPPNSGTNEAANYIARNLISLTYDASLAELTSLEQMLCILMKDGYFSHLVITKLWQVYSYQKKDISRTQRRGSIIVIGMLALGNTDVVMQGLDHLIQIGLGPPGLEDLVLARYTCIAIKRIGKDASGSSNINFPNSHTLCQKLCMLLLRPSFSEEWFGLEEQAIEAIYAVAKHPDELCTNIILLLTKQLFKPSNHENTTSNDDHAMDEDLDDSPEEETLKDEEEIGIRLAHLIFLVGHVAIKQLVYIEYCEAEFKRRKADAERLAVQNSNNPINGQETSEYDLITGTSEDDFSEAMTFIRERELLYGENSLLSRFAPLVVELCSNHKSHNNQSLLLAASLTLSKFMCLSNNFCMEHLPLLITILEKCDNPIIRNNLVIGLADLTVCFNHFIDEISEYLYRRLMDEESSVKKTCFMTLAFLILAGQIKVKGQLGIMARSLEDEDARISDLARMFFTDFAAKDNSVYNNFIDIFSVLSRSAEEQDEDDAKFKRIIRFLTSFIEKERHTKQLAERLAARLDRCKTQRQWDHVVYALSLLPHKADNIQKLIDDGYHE
In words: cross-linking; sulfo-SDA cross-link mass spectrometry (CLMS) of the purified five-subunit condensin complex with equimolar 124 bp linear dsDNA and 0.5 mM ADP·BeF3 (DNA-gripping state); CL buffer, 30°C 30 min, UV 365 nm on ice; 1% FDR at residue-pair level. Conditions: both partners purified.

A value given as a limit tells only on which side of the number the result lay.

supercoiled pBlueScript KSII(+) displayed a binding signal (% of second dsDNA captured) in data set [1] of 10. In data set [2], this molecule came in with a binding signal (% of input DNA recovered) of over 40.

B1: Cnd2^Brn1 (fission yeast condensin kleisin subunit) (natural protein, S. pombe, UniProt Q9Y7R3 1-742, looked up)
chain: MKRASLGGHAPVSLPSLNDDALEKKRAKENSRKQRELRRSSALHSITPRRESLNNSSPFNSSHQVPVLSNFEEWIKLATDNKINSTNTWNFALIDYFHDMSLLRDGEDINFQKASCTLDGCVKIYTSRIDSVATETGKLLSGLANDSKVLQQTEEGEDAENDDEDLQKKKERKRAQRSVKTLVKDFESIRAKKFELECSFDPLFKKMCADFDEDGAKGLLMNHLCVDQHGRIVFDSSDTVIKDLENKDVEAESQEAVVAAPIESHDTEMTNVHDNISRETLNGIYKCYFTDIDQLTICPSLQGFEFDSKGNLDVSLLKSLSDEVNMITTTSLVDNTMEKTDADAASLSSDSDGEEGHIVHALEEMAYDEENPYVDVVPKAMDESENPDFGVDTEVNMADGSTMNENYSIISTAAANGVYEYFDKSMKKNWAGPEHWRIQALRKNINNASTVFNSSNTAESSDNVSRSLSSTERKKRRELDNAIDFLQEVDVEALFTPATSSLKLPKSHWKRHNRCLLPDDYQYDSKRLLQLFLKPKMSVLPNADGEGQLQLNKALDDENDLDGIQPHGFDSDGSDNVDEGIPPYGFGDSDSPKQTPLLTPPSSSGFGDNLLLTARLAKPDMLNYAKRAKKVDVRVLKEKLWKCLDLENTIKENSINSHIEGSEMESEETNMPVKSFFSTVNQLEETYEKKELKDISTSFAFICVLHLANEHNLELTSNEDFSDVFIRPGPNLTTLEALENDV
notes: Cnd2 (Brn1), S. pombe condensin kleisin subunit; cDNA cloned into an S. cerevisiae expression vector; The 2xProtA tag was still on the chain while the complex was captured on rabbit IgG-agarose (assay a1); also called Cnd2-2xProtA; source: S. cerevisiae (w303, pep4 deleted), co-overexpressed with the other four condensin subunits from GAL1-10 promoters; in cell extract, and purified as the …
As to B1, the binding result in data set [3] is recorded as “binds”.

(Values after article PMC10842940, “Establishment of dsDNA-dsDNA interactions by the condensin complex” (Molecular cell, 2023).)
